According to patent US20080206220A1, “2031 Oxidoreductase” (F2G LTD, priority 2004, published 2008):

What was measured:
[1] = system: O=C1C=CCCC1; assay: purified protein, by the assay type; conditions: other: recombinant 2031 OR, 100 mM potassium phosphate buffer pH7.0; pH 7.0
Protocol: Assay plates: Compounds to be tested were dissolved in 100% DMSO (polypropylene vessels), diluted in water and loaded into 384 square well polystyrene plates (10 μl/well). The final DMSO concentration in all assay wells was 5% v/v.
βNADPH (tetrasodium salt)/2-cyclohexen-1-one reagent; Solutions of NADPH (1.2917 mM in 100 mM potassium phosphate buffer, pH7.0) and 2-cyclohexen-1-one (10 mM in 100 mM potassium phosphate buffer, pH7.0) were prepared on the day of the assay and combined in a ratio of 1 part of 2-cyclohexen-1-one solution to 9 parts NADPH solution. Final assay well concentrations for NADPH and 2-cyclohexen-1-one were 465 μM and 400 μM respectively.
For the iscreen, protein was typically diluted to 5 to 11.25 μg/ml in 100 mM potassium phosphate buffer, pH7.0.
Stop reagent: 0.4 M NaOH in water.
To give an increased signal, the screen was carried out using 2-cyclohexen-1-one at 4 times Km. […]
Assays were carried out using Tecan Freedom, Tecan TeMo and PerkinElmer Minitrak robots together with a ThermoLabsystems multidrop 384 and a Tecan Safire automated plate reader. […] Plates were read at 340 nm on a Tecan Safire plate reader and data processed using ‘in-house’ created Excel spreadsheets to convert raw data into percent inhibition data. […]

[2] = system: Recombinant 2031 OR; assay: Oxidoreductase assay: NADPH oxidation monitored at 340 nm, 96-well; assay type: biochemical, Aspergillus fumigatus; conditions: 500 μM substrate, 1 μg/200 μL 2031 OR, 120 μM NADPH
Protocol: The assay for 2031 OR is based on methods described by Abramovitz & Massey (1976, J. Biol. Chem. 251: 5321-5326) and Stott et al. (1993, J. Biol. Chem. 268: 6097-6106) and is based upon the ability of this enzyme to oxidise the pyridine nucleotides NADH and/or NADPH. […] Conversion of NAD(P)H to NAD(P)^+ can therefore be monitored spectrophotometrically at a wavelength of 340 nm. A similar assay can be employed for all oxidoreductases that use NADH or NADPH as a cofactor.
Assays were carried out in 96-well plates. To each well was added the following; Recombinant 2031 OR (10-1000 ng); 40 μl of 125-2500 μM NADPH; 1 μL 100 mM cyclohexeneone or other substrate, and the volume made up to 200 μL with 0.1 M potassium phosphate pH 7.0. Samples were incubated at room temperature and absorbance measurements were taken at 340 nm every 30 seconds for 10 min. The change in absorbance was expressed as nmoles NADPH oxidised, using the molar extinction coefficient of NADPH and NADH at 340 nm of 6270 (i.e., a 1M solution has an optical density of 6270 at this wavelength).
This is illustrated in FIG. 5. Final concentrations in the assay were as follows: 500 μM substrate, 1 μg/200 μL 2031 OR, 120 μM NADPH.

2031 OR enzyme (Aspergillus fumigatus Af293)
Km [1]: 100 µM

O=C1C=CCCC1 [2-cyclohexen-1-one]
Reduction of substrates by recombinant 2031 OR (substrate comparison, FIG. 5) [2]: better substrate than menadione, duroquinone or N-ethylmaleimide
